Key:
[1] = target: T1, human glycophorin A in the red blood cell membrane (human, UniProt P02724 20-150); test: ELISA, human RBC membranes;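 note: antibodies bound to isolated human red blood cell membrane ghosts coated on 96-well plates, tested 1.5 h at room temperature, bound antibody quantified with a detection antibody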
T1 construct: whole, on cells; used for intact RBC, isolated RBC membranes and transfected cells; the assay field tells which; also called GPA; hGPA
T1 sequence (looked up): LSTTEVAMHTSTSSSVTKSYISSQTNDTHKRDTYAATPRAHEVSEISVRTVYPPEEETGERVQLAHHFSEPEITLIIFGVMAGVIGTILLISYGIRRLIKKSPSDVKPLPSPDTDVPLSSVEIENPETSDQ
Method: In order to evaluate binding of antibodies to GPA in the native context of the red blood cell membrane we made use of isolated red blood cell membranes, also called red blood cells ghosts. These membranes are prepared by first isolating red blood cells from citrated whole blood. Citrated whole blood is layered on to Ficol and centrifuged at low speed for 20 minutes to pellet the red blood cells. The supernatant containing plasma and other blood cells is discarded and the red blood cell pellet is subsequently washed 3 times in 10 cell volumes of phosphate buffered saline (PBS). A 10 ml pellet of purified red blood cells is resuspended in 30 ml of cold low osmorality 20 mM phosphate buffer (pH7.4) and incubated for 30 mins to break open the RBC. After Centrifugation at 10,000 rpm for 30 min at 5° C. the hemoglobin containing supernatant is discarded. To the membrane pellet another 30 ml of 20 mM phosphate buffer is added and the sample centrifuged again at 10,000 rpm for 30 min at 5° C. to pellet the membrane fraction. This wash and centrifugation step is repeated another 4 times. The red blood cell membranes are then resuspended in 20 mL of PBS to achieve an equivalent of approximately 2.5E9 cells/mL and stored frozen at −20° C. Binding of antibodies to RBC ghost can be measured by ELISA in which the RBC ghost suspension (5×10⁶ in 100 ul PBS) was added to each well of flat bottom 96-well ELISA microtiter plates (2HB, Immunolon) and the plates incubated overnight at 4° C. The plates were blocked with Starting blocking buffer (Thermo Fisher) for 2 hours at room temperature (RT). Antibodies or other test molecules were added to each well and incubated for 1.5 hours at RT. After 4 washes 100 ul of an appropriate detection antibody was added to each well and incubated for 1 hour at RT. After 4 washes the detection antibody was measured using appropriate detection reagents.

[2] = target: T2, purified human glycophorin A protein (Sigma, cat # G5017) (human, UniProt P02724 20-150); test: ELISA, native hGPA
T2 construct: mature; also called Sigma hGPA; Sigma GPA
T2 sequence (looked up): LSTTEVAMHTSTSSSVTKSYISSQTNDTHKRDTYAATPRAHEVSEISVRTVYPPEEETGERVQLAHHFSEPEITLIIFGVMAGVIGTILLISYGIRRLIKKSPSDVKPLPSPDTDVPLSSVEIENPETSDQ

[3] = target: T1, human glycophorin A in the red blood …; test: SPR single cycle kinetics, human RBC membranes on L1 sensor; single cycle kinetics, FIG. 6
Method: (§1) Kinetic analysis of the antibody binding to human red blood cell membranes was also performed using surface plasmon resonance (SPR) using a Biacore instrument. In this assay membranes prepared from human red blood cells were attached to a L1 sensor matrix and antibodies were flowed over the RBC membranes.

[4] = target: T3, recombinant human GPA ectodomain (human, UniProt P02724 20-91); test: ELISA, rec hGPA ectodomain
T3 construct: also called recombinant hGPA ECD; recGPA
T3 sequence: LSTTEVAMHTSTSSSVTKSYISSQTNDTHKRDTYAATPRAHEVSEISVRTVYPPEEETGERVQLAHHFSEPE

[5] = target: T4, Cynomolgus monkey glycophorin A on Cynomolgus monkey red blood cells or red blood cell membranes (Cynomolgus monkey); test: Fab 7 ug/ml on intact cyno RBC, unbound Fab by ELISA; pre-dilution
T4 construct: whole, on cells; also called Cyno RBC; Cynomolgus monkey RBC membranes

[6] = target: T4, Cynomolgus monkey glycophorin A on …; test: Fab on intact cyno RBC, unbound Fab by ELISA; 0 min after 200-fold dilution
Method: (§2) The binding of affinity matured Fab antibodies to intact Cynomolgus monkey RBC was measured. Cynomolgus monkey RBC were isolated from fresh anti-coagulated blood by centrifugation through a ficol gradient and washing in PBS buffer. RBC diluted to 1/10th of normal hematocrit were incubated with the Fab at a final concentration of 7 ug/ml for 1 hour at room temperature on a rotating shaker after which a sample was taken and the RBC were pelleted by centrifugation and the supernatant was collected. The remaining RBC suspension was diluted 200-fold in PBS buffer and incubated for a total of 2 hours at room temperature on a rotating shaker and samples were removed at 0, 5 min, 20 min, 1 h and 2 h and the RBC pelleted and the supernatant collected. […] The amount of Fab in the supernatants was then measured using an ELISA assay and the results used to calculate the percentage of the input Fab that was bound to the RBC.

[7] = target: T5, human glycophorin A on human red blood cells or red blood cell membranes (human, UniProt P02724 20-150); test: Fab on intact human RBC, unbound Fab by ELISA; 0 min after 200-fold dilution
T5 construct: whole, on cells; also called hRBC; human RBC membranes
T5 sequence (looked up): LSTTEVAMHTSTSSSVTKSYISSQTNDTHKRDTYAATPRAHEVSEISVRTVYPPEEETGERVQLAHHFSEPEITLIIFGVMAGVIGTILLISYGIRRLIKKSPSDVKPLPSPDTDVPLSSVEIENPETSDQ

[8] = target: T5, human glycophorin A on human red blood …; test: Fab on intact human RBC, unbound Fab by ELISA; 5 min after 200-fold dilution
Method: (§3) The binding of affinity matured Fab antibodies to intact human RBC was also measured. Human RBC were isolated from fresh anti-coagulated normal human blood by centrifugation through a ficol gradient and washing in PBS buffer. RBC diluted to 1/10th of normal hematocrit were incubated with purified Fab antibodies at a final concentration of 7 ug/ml for 1 hour at room temperature on a rotating shaker after which a sample was taken and the RBC were pelleted by centrifugation and the supernatant was collected. The remaining RBC suspension was diluted 200-fold in PBS buffer and incubated for a total of 2 hours at room temperature on a rotating shaker and samples were removed at 0, 5 min, 20 min, 1 h and 2 h and the RBC pelleted and the supernatant collected. The amount of Fab in the supernatants was then measured using an ELISA assay and the results used to calculate the percentage of the input Fab that was bound to the RBC. […] The percentage that remains bound after 200-fold dilution of the RBC suspension is an indication of the overall strength of the binding to human RBC.

[9] = target: T4, Cynomolgus monkey glycophorin A on …; test: Fab on intact cyno RBC, unbound Fab by ELISA; 20 min after 200-fold dilution
Method: as §2

[10] = target: T4, Cynomolgus monkey glycophorin A on …; test: Fab on intact cyno RBC, unbound Fab by ELISA; 5 min after 200-fold dilution
Method: as §2

[11] = target: T5, human glycophorin A on human red blood …; test: SPR (Biacore), Fab on human RBC membranes; T½ = 0.69/kd; * not accurate;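 for kon: human RBC membranes captured on an L1 sensor chip, Fab fragments passed over as analyte, binding kinetics read by surface plasmon resonance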
Method: as §1
(§4) The binding kinetics of the affinity matured Fab antibodies was also measured.

[12] = target: T4, Cynomolgus monkey glycophorin A on …; test: Fab on intact cyno RBC, unbound Fab by ELISA; 120 min after 200-fold dilution
Method: as §2

[13] = target: T5, human glycophorin A on human red blood …; test: SPR (Biacore), Fab on human RBC membranes;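 note: human RBC membranes captured on an L1 sensor chip, Fab fragments passed over as analyte, binding kinetics read by surface plasmon resonance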
Method: as §1, §4

[14] = target: T5, human glycophorin A on human red blood …; test: SPR (Biacore), Fab on human RBC membranes; * not accurate, instrument limit;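 for kon: human RBC membranes captured on an L1 sensor chip, Fab fragments passed over as analyte, binding kinetics read by surface plasmon resonance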
Method: as §1, §4

[15] = target: T5, human glycophorin A on human red blood …; test: Fab on intact human RBC, unbound Fab by ELISA; 20 min after 200-fold dilution
Method: as §3

[16] = target: T5, human glycophorin A on human red blood …; test: Fab 7 ug/ml on intact human RBC, unbound Fab by ELISA; pre-dilution
Method: as §3

[17] = target: T5, human glycophorin A on human red blood …; test: Fab on intact human RBC, unbound Fab by ELISA; 120 min after 200-fold dilution
Method: as §3

[18] = target: T5, human glycophorin A on human red blood …; test: Fab on intact human RBC, unbound Fab by ELISA; 60 min after 200-fold dilution
Method: as §3

[19] = target: T4, Cynomolgus monkey glycophorin A on …; test: Fab on intact cyno RBC, unbound Fab by ELISA; 60 min after 200-fold dilution
Method: as §2

[20] = target: T2, purified human glycophorin A protein …; test: ELISA, purified IgG
Method: The “Sigma GPA” is a crude preparation of human GPA extracted from human red blood cells and is therefore representative of the highly glycosylated form of the native protein.
EC 50 values were determined from a dilution curve of the antibody. Sigma GPA is partially purified GPA extracted from human red blood cells and purchased from Sigma Chemical Company (cat # G5017), asialo hGPA is human GPA that was desialylated and ECD is the recombinantly expressed ectodomain which is the extracellular portion of GPA.

[21] = target: T3, recombinant human GPA ectodomain; test: SPR, IgG; SPR, IgG form, recombinant human GPA ectodomain
[22] = target: T1, human glycophorin A in the red blood …; test: FACS, hu RBC
Method: (§5) Hybridomas were generated from the spleen cells of these mice and these hybriomas were screened first by fluorescence activated cell sorting (FACS) against isolated human and monkey (Cynomolgus monkey and Rhesus monkey) red blood cells (RBC) and then by ELISA against purified human glycophorin A protein (GPA). Isolated RBC were prepared from whole blood from normal human, cynomolgus monkey, and beagle dog, were anticoagulant with sodium heparin (Bioreclamation). 2-3 mL of whole blood was loaded gently on the top of 3 mL Ficoll Plus (Sigma Aldrich) then centrifuged at 500 g for 20 min at room temperature (RT). The RBC pellets were washed 3 times with 10 mL of PBS, and centrifuge 400 g for 10 min at RT. RBC pellets were re-suspended in PBS at the same total volume as the original blood volume to achieve the same RBC cell density as in whole blood and stored at 4° C. Purified human glycophorin A protein was obtained from Sigma Aldrich and coated on ELISA plates at 2 ug/ml. Binding of antibodies to human GPA was detected using appropriate secondary antibodies using methods well known in the art.

dog red blood cells = target: T6, dog red blood cells (dog); test: FACS, dog RBC
T6 construct: also called dog RBC
Method: as §5

[23] = target: T7, Cynomolgus monkey glycophorin A on Cynomolgus monkey red blood cells (Cynomolgus monkey); test: FACS, Cyno RBC
T7 construct: whole, on cells; also called Cyno RBC; Cyno GPA

[24] = target: T2, purified human glycophorin A protein …; test: ELISA, hGPA

B1: TPP-4935 (Fab, V domains shown)
VH: EVQLVQSGAEVKKPGASVKVSCKASGYTFTTYTIHWVRQAPGQGLEWIGYINPSSDYTRYNPKFKDRVTLTTDKSTSTAYMELRSLRSDDTAVYYCQTGTRDYWGQGTTVTVSS
VL: DIQLTQSPSFLSASVGDRVTITCSAASSVSYIYWFQQKPGKAPKLLIYSTSTLPSGVPSRFSGSGSGTEYTLTISSLQPEDFATYYCHQRNSFPFTFGQGTKLEIKR
notes: also called Parental; hu6C12-24 parental Fab
- binding by ELISA relative to parental [1]: 0.99
- binding by ELISA relative to parental [2]: 1
- Kd [3]: 130 nM

B2: TPP-5341 (Fab, V domains shown)
VH: EVQLVQSGAEVKKPGASVKVSCKASGYTFTTYTIHWVRQAPGQGLEWIGYINPSSDYTRYNPKFKDRVTLTTDKSTSTAYMELRSLRSDDTAVYYCQTGTRDYWGQGTTVTVSS
VL: DIQLTQSPSFLSASVGDRVTITCSASSSVSYIYWFQQKPGKAPKLLIYSTSTLPSGVPSRFSGSGSGTEYTLTISSLQPEDFATYYCHQRNSFPFTFGQGTKLEIKR
notes: also called VL: (A26S)
- binding by ELISA relative to parental [1]: 0.82
- binding by ELISA relative to parental [4]: 1.19
- binding by ELISA relative to parental [2]: 1.03
- Kd [3]: 34 nM

B3: TPP-7783, affinity matured 6C12 Fab (Fab, V domains shown)
VH: EVQLVQSGAEVKKPGASVKVSCKASGYTFTTYAIHWVRQAPGQGLEWMGYINPSSGYTRYNPKFKHRVTMTRDKSTSTAYMELRSLRSDDTAVYYCWTGTRDYWGQGTTVTVSS
VL: DIQLTQSPSFLSASVGDRVTITCRASSSVRYIYWFQQKPGKAPKLLIYATSFRRSGVPSRFSGSGSGTEYTLTISSLQPEDFATYYCHQRNSFPYTFGQGTKLEIK
notes: Tested as Fab
- percentage of input antibody bound [5]: 72%
- percentage of input antibody bound [6]: 60%
- percentage of input antibody bound [7]: 87%
- percentage of input antibody bound [8]: 86%
- percentage of input antibody bound [9]: 62%
- percentage of input antibody bound [10]: 62%
- Estimated T½ [11]: 33 days
- percentage of input antibody bound [12]: 56%
- kon [13]: 267000 M⁻¹ s⁻¹
- Kd [14]: 0.000904 nM
- koff [14]: 2.42e-07 s⁻¹
- percentage of input antibody bound [15]: 86%
- percentage of input antibody bound [16]: 90%
- percentage of input antibody bound [17]: 85%
- percentage of input antibody bound [18]: 84%
- percentage of input antibody bound [19]: 64%

B4: TPP-5340 (Fab, V domains shown)
VH: EVQLVQSGAEVKKPGASVKVSCKASGYTFTTYTIHWVRQAPGQGLEWIGYINPSSDYTRYNPKFKDRVTLTTDKSTSTAYMELRSLRSDDTAVYYCQTGTRDYWGQGTTVTVSS
VL: DIQLTQSPSFLSASVGDRVTITCRAASSVSYIYWFQQKPGKAPKLLIYSTSTLPSGVPSRFSGSGSGTEYTLTISSLQPEDFATYYCHQRNSFPFTFGQGTKLEIKR
notes: also called VL: (S24R)
- binding by ELISA relative to parental [1]: 0.9
- binding by ELISA relative to parental [4]: 1.23
- binding by ELISA relative to parental [2]: 1.17
- Kd [3]: 25 nM

B5: 7G4E9/A8 (antibody, V domains shown)
VH: QVQLKESGPGLVAPSQSLSITCTVSGFSLTRFGISWVRQPPGKGLEWMGVIWGDGSTDYHSALISRLSITKDNSKSQVFFRLNSLQSDDSATYYCARSFGMDYWGQGTSVTVSS
VL: NIMMTQSPSSLAVSAGEKVTMSCKSSQSILNSSNQKNYLAWYQQKPGQSPKLLIYWASTRESGVPDRFTGSGSGTDFTLTISSVQAEDLAVYYCHQYFSSRTFGGGTKLEIK
notes: as m8
- EC50 [20]: 0.33 nM
- Kd [21]: 5.92 nM
- koff [21]: 0.00046 s⁻¹
- kon [21]: 77700 M⁻¹ s⁻¹
- t½ [21]: 0.0174 days
- FACS signal [22]: 2830 relative flourescence units
- FACS signal (dog red blood cells): 0.98 relative flourescence units
- FACS signal [23]: 8 relative flourescence units
- EC50 [24]: 0.071 nM
